We go through 19 molecules from the FLAb antibody collection (doi:10.1101/2023.12.08.570889).

The chains are these.
B1: unnamed (protein)
chain 1: EVQLLESGGGLVQPGGSLRLSCAASGFTFSQYGMDWVRQAPGKGLEWVSGIGPSGGSTVYADSVKGRFTISRDNSKNTLYLQMNSLRAEDTAVYYCTRDGSAYYYAFDYWGQGTTVTVSS
chain 2: DIQMTQSPSSLSASVGDRVTITCQASQDISNYLNWYQQKPGKAPKLLIYDASNLETGVPSRFSGSGSGTDFTFTISSLQPEDIATYYCQQADSFPVTFGGGTKVEIK
B2: unnamed (protein)
chain 1: EVQLLESGGGLVQPGGSLRLSCAASGFTFSSYAMDWVRQAPGKGLEWVSGISSDGGSTVYADSVKGRFTISRDNSKNTLYLQMNSLRAEDTAVYYCARDGPSYYYAFDVWGQGTTVTVSS
chain 2: DIQMTQSPSSLSASVGDRVTITCQASQDISNYLNWYQQKPGKAPKLLIYDASNLETGVPSRFSGSGSGTDFTFTISSLQPEDIATYYCQQADSFPVTFGGGTKVEIK
B3: unnamed (protein)
chain 1: EVQLLESGGGLVQPGGSLRLSCAASGFTFSSYAMDWVRQAPGKGLEWVSGISSDGGSTVYADSVKGRFTISRDNSKNTLYLQMNSLRAEDTAVYYCARGGPAYYYGFDVWGQGTTVTVSS
chain 2: DIQMTQSPSSLSASVGDRVTITCQASQDISNYLNWYQQKPGKAPKLLIYDASNLETGVPSRFSGSGSGTDFTFTISSLQPEDIATYYCQQADSFPVTFGGGTKVEIK
B4: unnamed (protein)
chain 1: EVQLLESGGGLVQPGGSLRLSCAASGFTFSSYAMDWVRQAPGKGLEWVSGISSDGGSTVYADSVKGRFTISRDNSKNTLYLQMNSLRAEDTAVYYCARGGPSYYYAFDVWGQGTTVTVSS
chain 2: DIQMTQSPSSLSASVGDRVTITCQASQDISNYLNWYQQKPGKAPKLLIYDASNLETGVPSRFSGSGSGTDFTFTISSLQPEDIATYYCQQADSFPVTFGGGTKVEIK
B5: unnamed (protein)
chain 1: EVQLLESGGGLVQPGGSLRLSCAASGFTFSSYAMDWVRQAPGKGLEWVSGISSDGGSTVYADSVKGRFTISRDNSKNTLYLQMNSLRAEDTAVYYCTRDGPWYYYAFDVWGQGTTVTVSS
chain 2: DIQMTQSPSSLSASVGDRVTITCQASQDISNYLNWYQQKPGKAPKLLIYDASNLETGVPSRFSGSGSGTDFTFTISSLQPEDIATYYCQQADSFPVTFGGGTKVEIK
B6: unnamed (protein)
chain 1: EVQLLESGGGLVQPGGSLRLSCAASGFTFSQYGMDWVRQAPGKGLEWVSGIGPSGGSTVYADSVKGRFTISRDNSKNTLYLQMNSLRAEDTAVYYCTRGGPYYYYGMDVWGQGTTVTVSS
chain 2: DIQMTQSPSSLSASVGDRVTITCQASQDISNYLNWYQQKPGKAPKLLIYDASNLETGVPSRFSGSGSGTDFTFTISSLQPEDIATYYCQQADSFPVTFGGGTKVEIK
B7: unnamed (protein)
chain 1: EVQLLESGGGLVQPGGSLRLSCAASGFTFSSYGMDWVRQAPGKGLEWVSGISADGGSTVYADSVKGRFTISRDNSKNTLYLQMNSLRAEDTAVYYCTRGGPAYYYAFDVWGQGTTVTVSS
chain 2: DIQMTQSPSSLSASVGDRVTITCQASQDISNYLNWYQQKPGKAPKLLIYDASNLETGVPSRFSGSGSGTDFTFTISSLQPEDIATYYCQQADSFPVTFGGGTKVEIK
B8: unnamed (protein)
chain 1: EVQLLESGGGLVQPGGSLRLSCAASGFTFSSYGMDWVRQAPGKGLEWVSGISSDGGSTVYADSVKGRFTISRDNSKNTLYLQMNSLRAEDTAVYYCTRDGPAYYYAFDVWGQGTTVTVSS
chain 2: DIQMTQSPSSLSASVGDRVTITCQASQDISNYLNWYQQKPGKAPKLLIYDASNLETGVPSRFSGSGSGTDFTFTISSLQPEDIATYYCQQADSFPVTFGGGTKVEIK
B9: unnamed (protein)
chain 1: EVQLLESGGGLVQPGGSLRLSCAASGFTFSSYAMDWVRQAPGKGLEWVSGISSDGGSTVYADSVKGRFTISRDNSKNTLYLQMNSLRAEDTAVYYCTRDGPYYYYAFDVWGQGTTVTVSS
chain 2: DIQMTQSPSSLSASVGDRVTITCQASQDISNYLNWYQQKPGKAPKLLIYDASNLETGVPSRFSGSGSGTDFTFTISSLQPEDIATYYCQQADSFPVTFGGGTKVEIK
B10: unnamed (protein)
chain 1: EVQLLESGGGLVQPGGSLRLSCAASGFTFSQYGMDWVRQAPGKGLEWVSGIGPSGGSTVYADSVKGRFTISRDNSKNTLYLQMNSLRAEDTAVYYCARRGRYGLYAMDYWGQGTTVTVSS
chain 2: DIQMTQSPSSLSASVGDRVTITCQASQDISNYLNWYQQKPGKAPKLLIYDASNLETGVPSRFSGSGSGTDFTFTISSLQPEDIATYYCQQADSFPVTFGGGTKVEIK
B11: unnamed (protein)
chain 1: EVQLLESGGGLVQPGGSLRLSCAASGFTFSSYAMDWVRQAPGKGLEWVSGISADGGSTVYADSVKGRFTISRDNSKNTLYLQMNSLRAEDTAVYYCTRDGPAYYYGFDVWGQGTTVTVSS
chain 2: DIQMTQSPSSLSASVGDRVTITCQASQDISNYLNWYQQKPGKAPKLLIYDASNLETGVPSRFSGSGSGTDFTFTISSLQPEDIATYYCQQADSFPVTFGGGTKVEIK
B12: unnamed (protein)
chain 1: EVQLLESGGGLVQPGGSLRLSCAASGFTFSSYAMDWVRQAPGKGLEWVSGISYDGGSTVYADSVKGRFTISRDNSKNTLYLQMNSLRAEDTAVYYCARGGPAYYYAFDVWGQGTTVTVSS
chain 2: DIQMTQSPSSLSASVGDRVTITCQASQDISNYLNWYQQKPGKAPKLLIYDASNLETGVPSRFSGSGSGTDFTFTISSLQPEDIATYYCQQADSFPVTFGGGTKVEIK
B13: unnamed (protein)
chain 1: EVQLLESGGGLVQPGGSLRLSCAASGFTFSSYAMDWVRQAPGKGLEWVSGISGDGGSTVYADSVKGRFTISRDNSKNTLYLQMNSLRAEDTAVYYCTRGGPAYYYGFDVWGQGTTVTVSS
chain 2: DIQMTQSPSSLSASVGDRVTITCQASQDISNYLNWYQQKPGKAPKLLIYDASNLETGVPSRFSGSGSGTDFTFTISSLQPEDIATYYCQQADSFPVTFGGGTKVEIK
B14: unnamed (protein)
chain 1: EVQLLESGGGLVQPGGSLRLSCAASGFTFSSYGMDWVRQAPGKGLEWVSGISSDGGSTVYADSVKGRFTISRDNSKNTLYLQMNSLRAEDTAVYYCTRGGPAYYYAFDVWGQGTTVTVSS
chain 2: DIQMTQSPSSLSASVGDRVTITCQASQDISNYLNWYQQKPGKAPKLLIYDASNLETGVPSRFSGSGSGTDFTFTISSLQPEDIATYYCQQADSFPVTFGGGTKVEIK
B15: unnamed (protein)
chain 1: EVQLLESGGGLVQPGGSLRLSCAASGFTFSSYGMDWVRQAPGKGLEWVSGISSDGGSTVYADSVKGRFTISRDNSKNTLYLQMNSLRAEDTAVYYCTRDGPSYYYAFDVWGQGTTVTVSS
chain 2: DIQMTQSPSSLSASVGDRVTITCQASQDISNYLNWYQQKPGKAPKLLIYDASNLETGVPSRFSGSGSGTDFTFTISSLQPEDIATYYCQQADSFPVTFGGGTKVEIK
B16: unnamed (protein)
chain 1: EVQLLESGGGLVQPGGSLRLSCAASGFTFSSYAMDWVRQAPGKGLEWVSGISSDGGSTVYADSVKGRFTISRDNSKNTLYLQMNSLRAEDTAVYYCTRGGPYYYYAFDVWGQGTTVTVSS
chain 2: DIQMTQSPSSLSASVGDRVTITCQASQDISNYLNWYQQKPGKAPKLLIYDASNLETGVPSRFSGSGSGTDFTFTISSLQPEDIATYYCQQADSFPVTFGGGTKVEIK
B17: unnamed (protein)
chain 1: EVQLLESGGGLVQPGGSLRLSCAASGFTFSSYAMDWVRQAPGKGLEWVSGISGDGGSTVYADSVKGRFTISRDNSKNTLYLQMNSLRAEDTAVYYCTRGGPAYYYAFDYWGQGTTVTVSS
chain 2: DIQMTQSPSSLSASVGDRVTITCQASQDISNYLNWYQQKPGKAPKLLIYDASNLETGVPSRFSGSGSGTDFTFTISSLQPEDIATYYCQQADSFPVTFGGGTKVEIK
B18: unnamed (protein)
chain 1: EVQLLESGGGLVQPGGSLRLSCAASGFTFSSYAMDWVRQAPGKGLEWVSGISSDGGSTVYADSVKGRFTISRDNSKNTLYLQMNSLRAEDTAVYYCARGGPAYYYAFDVWGQGTTVTVSS
chain 2: DIQMTQSPSSLSASVGDRVTITCQASQDISNYLNWYQQKPGKAPKLLIYDASNLETGVPSRFSGSGSGTDFTFTISSLQPEDIATYYCQQADSFPVTFGGGTKVEIK
B19: unnamed (protein)
chain 1: EVQLLESGGGLVQPGGSLRLSCAASGFTFSSYAMDWVRQAPGKGLEWVSGISADGGSTVYADSVKGRFTISRDNSKNTLYLQMNSLRAEDTAVYYCTRGGPAYYYAFDYWGQGTTVTVSS
chain 2: DIQMTQSPSSLSASVGDRVTITCQASQDISNYLNWYQQKPGKAPKLLIYDASNLETGVPSRFSGSGSGTDFTFTISSLQPEDIATYYCQQADSFPVTFGGGTKVEIK

For this test, the target named is FXI. The experiment in a line: Kd (SPR).
Broadly, the Kd is a measure of binding affinity in units of concentration. Lower therefore signals higher affinity. With B1, the equilibrium dissociation constant (Kd) was determined as 248 nM.

Molecule B2 displayed a Kd of 51.1 nM. Against the preceding molecule, the Kd is about 4.9-fold lower.

B3: the Kd was found to be 310 nM. Against the preceding molecule, the Kd is about 6.1-fold higher.

The molecule B4 registered a Kd of 505 nM.

B5 displayed a Kd of 692 nM.

B6 gave a Kd of 102 nM.

With B7, the equilibrium dissociation constant (Kd) is 245 nM.

Take B8: the Kd came out at 58 nM.

Turning to B9, the dissociation constant Kd amounted to 693 nM.

The molecule B10 returned a Kd of 2040 nM.

Molecule B11 returned a Kd of 485 nM. This Kd lies about 4.2-fold lower than the previous one.

Molecule B12 showed a Kd of 702 nM.

As for B13, the Kd stood at 546 nM.

Molecule B14 displayed a Kd of 293 nM.

Regarding B15, the Kd amounted to 80.9 nM.

Turning to B16, the Kd was found to be 375 nM. This Kd lies about 4.6-fold higher than the previous one.

Take B17: the dissociation constant Kd is 857 nM.

B18 showed a Kd of 635 nM.

The molecule B19 came in with a Kd of 707 nM.
